According to PMC6611904, “The transcription factor OsSUF4 interacts with SDG725 in promoting H3K36me3 establishment”:

Columns and labels:
His-OsSUF4N = His-OsSUF4N (Oryza sativa, UniProt Q653D5 1-105); test: EMSA; ITC: 100 mM NaCl, 20 mM Tris-HCl pH 8.0, 25 C, 2 mM protein into 0.1 mM DNA; EMSA: LightShift kit binding buffer, 5 ug protein, 0.02 uM probe, poly(dI-dC), 25 C 30 min, 5% PAGE; conditions: protein: recombinant; tags: His (pET32a)
OsSUF4 ZF K36A = OsSUF4 ZF K36A (Oryza sativa, UniProt Q653D5 10-100, K36A); test: ITC; ITC: 100 mM NaCl, 20 mM Tris-HCl pH 8.0, 25 C, 2 mM protein into 0.1 mM DNA; EMSA: LightShift kit binding buffer, 5 ug protein, 0.02 uM probe, poly(dI-dC), 25 C 30 min, 5% PAGE; conditions: protein: recombinant; tags: pET28-SUMO; Ni column; blunt
Chain of OsSUF4 ZF K36A (Q653D5 entry or part of it K36A | K36A K36A): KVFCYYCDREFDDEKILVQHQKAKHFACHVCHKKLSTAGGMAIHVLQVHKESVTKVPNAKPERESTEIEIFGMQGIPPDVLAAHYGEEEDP

OsSUF4 ZF K33A = OsSUF4 ZF K33A (Oryza sativa, UniProt Q653D5 10-100, K33A); test: as above; conditions: protein: recombinant; tags: pET28-SUMO; Ni column; blunt
Chain of OsSUF4 ZF K33A (Q653D5 entry or part of it K33A | K33A K33A): as the sequence (Q653D5 entry or part of it K36A | K36A K36A) above, with K24A, A27K counted along it

[1] = target: OsSUF4 zinc finger domain WT (Oryza sativa, UniProt Q653D5 10-100); test: as above; conditions: protein: recombinant; tags: pET28-SUMO; Ni column; blunt
Chain of OsSUF4 zinc finger domain WT (Q653D5 entry or part of it): as the sequence (Q653D5 entry or part of it K36A | K36A K36A) above, with A27K counted along it

OsSUF4 ZF K31A = OsSUF4 ZF K31A (Oryza sativa, UniProt Q653D5 10-100, K31A); test: as above; conditions: protein: recombinant; tags: pET28-SUMO; Ni column; blunt
Chain of OsSUF4 ZF K31A (Q653D5 entry or part of it K31A | K31A K31A): as the sequence (Q653D5 entry or part of it K36A | K36A K36A) above, with K22A, A27K counted along it

OsSUF4 ZF K43A = OsSUF4 ZF K43A (Oryza sativa, UniProt Q653D5 10-100, K43A); test: as above; conditions: protein: recombinant; tags: pET28-SUMO; Ni column; blunt
Chain of OsSUF4 ZF K43A (Q653D5 entry or part of it K43A | K43A K43A): as the sequence (Q653D5 entry or part of it K36A | K36A K36A) above, with A27K, K34A counted along it

OsSUF4 ZF K24A = OsSUF4 ZF K24A (Oryza sativa, UniProt Q653D5 10-100, K24A); test: as above; conditions: protein: recombinant; tags: pET28-SUMO; Ni column; blunt
Chain of OsSUF4 ZF K24A (Q653D5 entry or part of it K24A | K24A K24A): as the sequence (Q653D5 entry or part of it K36A | K36A K36A) above, with K15A, A27K counted along it

OsSUF4 ZF 4m = OsSUF4 ZF 4m (Oryza sativa, UniProt Q653D5 10-100, R18A;K33A;K36A;K43A); test: as above; conditions: protein: recombinant; tags: pET28-SUMO; Ni column; blunt
Chain of OsSUF4 ZF 4m (Q653D5 entry or part of it R18A;K33A;K36A;K43A): as the sequence (Q653D5 entry or part of it K36A | K36A K36A) above, with R9A, K24A, K34A counted along it

OsSUF4 ZF R18A = OsSUF4 ZF R18A (Oryza sativa, UniProt Q653D5 10-100, R18A); test: as above; conditions: protein: recombinant; tags: pET28-SUMO; Ni column; blunt
Chain of OsSUF4 ZF R18A (Q653D5 entry or part of it R18A | R18A R18A): as the sequence (Q653D5 entry or part of it K36A | K36A K36A) above, with R9A, A27K counted along it

His-AtSUF4 (full length) = His-AtSUF4 (full length) (Arabidopsis thaliana, UniProt Q9C5G0 1-367); test: EMSA; ITC: 100 mM NaCl, 20 mM Tris-HCl pH 8.0, 25 C, 2 mM protein into 0.1 mM DNA; EMSA: LightShift kit binding buffer, 5 ug protein, 0.02 uM probe, poly(dI-dC), 25 C 30 min, 5% PAGE; conditions: protein: recombinant; tags: His (pET32a)
Chain of His-AtSUF4 (full length) (Q9C5G0 whole entry): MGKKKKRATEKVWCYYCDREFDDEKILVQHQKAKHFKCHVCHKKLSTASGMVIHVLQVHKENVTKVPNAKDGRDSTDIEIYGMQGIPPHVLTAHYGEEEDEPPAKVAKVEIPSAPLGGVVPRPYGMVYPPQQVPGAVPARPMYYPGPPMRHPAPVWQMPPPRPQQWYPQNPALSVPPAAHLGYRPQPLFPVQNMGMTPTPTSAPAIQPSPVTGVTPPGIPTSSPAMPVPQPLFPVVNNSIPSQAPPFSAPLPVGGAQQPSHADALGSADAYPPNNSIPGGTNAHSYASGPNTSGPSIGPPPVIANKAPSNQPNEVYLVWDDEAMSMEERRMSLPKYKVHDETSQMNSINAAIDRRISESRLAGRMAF

Chain of His-OsSUF4N (Q653D5 entry or part of it): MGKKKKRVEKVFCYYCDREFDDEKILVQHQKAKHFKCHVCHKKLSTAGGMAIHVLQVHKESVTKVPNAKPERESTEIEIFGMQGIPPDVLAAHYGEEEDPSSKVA

B1: Os05g48810 probe (dsDNA)
DNA 1: TATATTCAATGTCGGAAATCATTCCCGTAC
DNA 2: GTACGGGAATGATTTCCGACATTGAATATA
B1: binds (His-OsSUF4N).

B2: Os04g49660 probe (dsDNA)
DNA 1: AGGACTAATTCGGAAATCTCCCCTTCCCGT
DNA 2: ACGGGAAGGGGAGATTTCCGAATTAGTCCT
B2: binds (His-OsSUF4N).

B3: Os06g06490 probe (dsDNA)
DNA 1: ATATTTTTTCGCGGAAATTCGGTCTTCACT
DNA 2: AGTGAAGACCGAATTTCCGCGAAAAAATAT
B3: binds (His-OsSUF4N).

B4: Os09g31486 probe (dsDNA)
DNA 1: CCACCGAAATGACGGAAATGCCCCTGGCCG
DNA 2: CGGCCAGGGGCATTTCCGTCATTTCGGTGG
B4: binds (His-OsSUF4N).

B5: Os02g08490 probe (dsDNA)
DNA 1: AGACCGTCGATTCGGAAATAAACGGGCCGG
DNA 2: CCGGCCCGTTTATTTCCGAATCGACGGTCT
B5: binds (His-OsSUF4N).

B6: Os12g01760 probe (dsDNA)
DNA 1: ATCATTTTTTCGGAAATATACAAATGCTGA
DNA 2: TCAGCATTTGTATATTTCCGAAAAAATGAT
B6: binds (His-OsSUF4N).

B7: Hd3a-mu8 (dsDNA)
DNA 1: ACAGTTAACTAACGGCCTAAGGGGGGTATAAA
DNA 2: TTTATACCCCCCTTAGGCCGTTAGTTAACTGT
B7: no binding (His-OsSUF4N).

B8: ITC 16-bp DNA (dsDNA)
DNA 1: GGGTACGGAAATGGTA
DNA 2: TACCATTTCCGTACCC
With B8 the binding result (OsSUF4 ZF K36A) was “no binding”, the binding result (OsSUF4 ZF K33A) was “no binding” and the Kd [1] was 51.3 ± 3.68 µM. B8: no binding (OsSUF4 ZF K31A); no binding (OsSUF4 ZF K43A); no binding (OsSUF4 ZF K24A). B8: no binding (OsSUF4 ZF 4m); no binding (OsSUF4 ZF R18A).

B9: Os12g21784 probe (dsDNA)
DNA 1: CTTTCTCTTCGGAAATATAAATATATACCC
DNA 2: GGGTATATATTTATATTTCCGAAGAGAAAG
B9: binds (His-OsSUF4N).

B10: RFT1-WT (dsDNA)
DNA 1: AGTATGAGTTTTGGAATCGGAAATATACCGAAC
DNA 2: GTTCGGTATATTTCCGATTCCAAAACTCATACT
B10: binds (His-OsSUF4N).

B11: Hd3a-e (Hd3a-WT) (dsDNA)
DNA 1: ACAGTTAACTAACGGTACGGAAATGGTATAAA
DNA 2: TTTATACCATTTCCGTACCGTTAGTTAACTGT
B11: no binding (His-AtSUF4 (full length)).
